Assay [1] addresses human Mcl-1 ΔPESTΔTM (human). Briefly: NMR titration.
For assay [2], the target named is human Mcl-1 ΔPESTΔTM (human). Briefly: NMR titration. This is another data set of the same source.
The target of assay [3] is human Mcl-1 ΔPESTΔTM (human). Kind of assay: SEC + other: SAXS.

Read-outs that look alike come from different tables or passages of the source. Bounds are passed on as bounds.

Mule BH3 peptide (MuleBH3) returned a relative population of Mcl-1 bound, in the mix of three peptides in assay [1] of 55%.

DEMFSIIYKIREIADGLCLEVE [TCTP BH3-like peptide D16I mutant (TCTP_(BH3D16I))] had a relative population of Mcl-1 bound, in the mix of three peptides in assay [2] of 45%.

B1: full length human TCTP (Translationally Controlled Tumour Protein) (natural protein)
chain: MIIYRDLISHDEMFSDIYKIREIADGLCLEVEGKMVSRTEGNIDDSLIGGNASAEGPEGEGTESTVITGVDIVMNHHLQETSFTKEAYKKYIKDYMKSIKGKLEEQRPERVKPFMTGAAEQIKHILANFKNYQFFIGENMNPDGMVALLDYREDGVTPYMIFFKDGLEMEKC
One may read the stoichiometry N as the number of molecules, sites or subunits per partner or assembly. As for B1, the stoichiometry N in assay [3] amounted to 1.

A word on the Kd: it is a measure of binding affinity in units of concentration. As to DEMFSDIYKIREIADGLCLEVE [TCTP BH3-like peptide (TCTPBH3)], in assay [2], the Kd was 7.9 µM; the fold weaker relative affinity than TCTPBH3D16I and MuleBH3 was more than 10 fold.

Values taken from publication doi:10.1101/2022.11.05.515280.
